Test results: publication PMC10415144, “Structural insights into CodY activation and DNA recognition” (Nucleic Acids Research, 2023)

Assays:
[1] = target: Staphylococcus aureus CodY (SaCodY), full length (Staphylococcus aureus) (UniProt Q2FHI3); test: SEC-MALS; Superdex 75 10/300, 0.4 ml/min; 200 ul of 35 uM CodY, ligand-free, 20 mM Tris-HCl pH 8, 200 mM NaCl
[2] = target: T1, EfCodY (Enterococcus faecalis) (UniProt Q834K5); test: BLI; conditions: BLI: 20 mM Tris-HCl pH 8, 150 mM NaCl, 2 mM MgCl2, 0.1% NP-40, 25 C, 2 mM GTP and/or 10 mM Ile/Leu/Val as stated
T1 sequence: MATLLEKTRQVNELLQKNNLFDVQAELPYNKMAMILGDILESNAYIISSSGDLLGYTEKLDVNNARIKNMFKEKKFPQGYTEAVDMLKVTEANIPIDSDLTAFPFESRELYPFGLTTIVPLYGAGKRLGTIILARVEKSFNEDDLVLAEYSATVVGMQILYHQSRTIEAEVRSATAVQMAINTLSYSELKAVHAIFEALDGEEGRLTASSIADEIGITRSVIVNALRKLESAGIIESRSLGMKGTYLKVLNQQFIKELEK

## Staphylococcus aureus CodY (SaCodY), full length (from UniProt Q2FHI3 1-257) (natural protein)
[1]
  stoichiometry N: 2

## single 15-nt consensus site
[2]; 10 mM Leu (implied), values printed as pair, assigned by order
  Kd: 706 nM

## 26-nt overlapping sites
[2]
  Kd: 710 nM
